The subject of data set [1] is CC(C)(COP(=O)(O)OP(=O)(O)OC[C@H]1O[C@@H](n2cnc3c(N)ncnc32)[C@H](O)[C@@H]1OP(=O)(O)O)[C@@H](O)C(=O)NCCC(=O)NCCSC(=O)CCC(=O)c1ccccc1C(=O)O. Put plainly: purified protein. In kind it is biochemical, Escherichia coli. To be noted: pH 7.0; 25.0 °C.
Data set [2] shares this test system. Put plainly: purified protein. To be noted: pH 7.0; 25.0 °C.
The test system of data set [3] is CC(C)(COP(=O)(O)OP(=O)(O)OC[C@H]1O[C@@H](n2cnc3c(N)ncnc32)[C@H](O)[C@@H]1OP(=O)(O)O)[C@@H](O)C(=O)NCCC(=O)NCCSC(=O)CCCc1ccccc1C(=O)O. The experiment in a line: purified protein. To be noted: pH 7.0; 25.0 °C.
The target in data set [4] is T1, mtMenB (Mycobacterium tuberculosis, UniProt P9WNP5). Put plainly: not stated. In kind it is binding.
The target of data set [5] is T1, mtMenB. The experiment in a line: X-ray co-crystal structure, […] Å. To be noted: partial occupancy, weak density, acyl part not resolved; pH 8.0. In kind it is binding.
A further data set deals with ecMenB (Escherichia coli, UniProt P0ABU0). The experiment in a line: X-ray co-crystal structure, […] Å. In kind it is binding. To be noted: all six active sites of the hexamer; stable substrate analogue; pH 6.5.
Chain of ecMenB (P0ABU0 whole entry): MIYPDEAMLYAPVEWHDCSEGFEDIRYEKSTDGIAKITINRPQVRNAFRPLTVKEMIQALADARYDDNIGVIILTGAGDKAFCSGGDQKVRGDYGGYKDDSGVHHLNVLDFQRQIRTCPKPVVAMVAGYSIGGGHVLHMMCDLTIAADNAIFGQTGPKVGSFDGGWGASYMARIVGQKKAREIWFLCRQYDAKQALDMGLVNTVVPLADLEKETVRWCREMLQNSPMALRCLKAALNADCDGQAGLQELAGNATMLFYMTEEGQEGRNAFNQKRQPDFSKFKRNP

T1 sequence (P9WNP5 whole entry): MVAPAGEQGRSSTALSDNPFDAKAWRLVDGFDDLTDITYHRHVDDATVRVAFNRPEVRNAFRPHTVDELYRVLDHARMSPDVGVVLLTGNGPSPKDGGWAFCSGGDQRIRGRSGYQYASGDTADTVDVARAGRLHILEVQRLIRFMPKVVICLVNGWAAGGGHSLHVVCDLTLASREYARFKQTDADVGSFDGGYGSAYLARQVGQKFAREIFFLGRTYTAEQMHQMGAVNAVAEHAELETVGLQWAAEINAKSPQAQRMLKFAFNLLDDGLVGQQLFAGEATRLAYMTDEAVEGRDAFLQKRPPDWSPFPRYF

With (Escherichia coli K-12), in data set [1], the Michaelis constant (Km) came to 25.9 ± 3.3 µM.
Take (Mycobacterium tuberculosis H37Rv): the Km in data set [2] turned out to be 22.4 ± 2.1 µM. Also, in data set [3], the Km amounted to 106 ± 31 µM and the kcat/Km is 2.4 ± 0.7 M⁻¹ s⁻¹.
`COC(=O)c1ccccc1C(=O)CCC(=O)SCCNC(=O)CCNC(=O)[C@H](O)C(C)(C)COP(=O)(O)OP(=O)(O)OC[C@H]1O[C@@H](n2cnc3c(N)ncnc32)[C@H](O)[C@@H]1OP(=O)(O)O` [OSB-CoA methyl ester] came in with a dissociation constant (Kd) on mtMenB [4] of 11.5 ± 1.2 µM.
Turning to `CC(C)(COP(=O)(O)OP(=O)(O)OC[C@H]1O[C@@H](n2cnc3c(N)ncnc32)[C@H](O)[C@@H]1OP(=O)(O)O)[C@@H](O)C(=O)NCCC(=O)NCCNC(=O)CCC(=O)c1ccccc1C(=O)O` [OSB-NCoA], on mtMenB [5], the “X-ray co-crystal structure, 2.25 Å” value is on record as “Density for OSB-NCoA can be observed but is weak in chain C”. At ecMenB, the “X-ray co-crystal structure, 2.00 Å” value was “In the structure of OSB-NCoA bound to ecMenB, the ligand can be observed in all six”.

What is called Km is the concentration of substrate that gives half-maximal velocity. Usually kcat/Km stands for the turnover number divided by the Michaelis constant. The term Kd denotes the free concentration of one partner at which half of the binding sites on the other are occupied at equilibrium, for simple one-to-one binding.

The values are drawn from paper PMC4119599 (Biochemistry, 2011).
